The data set deals with MS2 coat protein. Nature of the data set: apparent KD of MS2 coat protein; designed switch direction (-1 OFF switch, 1 ON switch): 1; higher = weaker reporter binding. In a few lines:
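Three titration conditions were used: no input, 200 uM small-molecule ligand, and an oligonucleotide input. In each, SNAP-549-labelled MS2 coat protein was raised from 0.7 or 1.5 nM, doubling, to 3 µM over designed RNA switches transcribed on Illumina chips by stalled E. coli RNA polymerase. Curve fits of normalised cluster fluorescence gave values whose per-design median over clusters is the apparent KD.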

Where [1] appears, read: input ligand: microRNA oligo, concentration not stated.
The mark [2] stands for this setting: Eterna round: R95, input ligand: FMN 200 uM.
The mark [3] stands for this setting: Eterna round: R95, input ligand: microRNA oligo, concentration not stated.
Setting [4] is: Eterna round: R95, input ligand: none.

As for “AUUUUUAAUGCAGGAUAUGAUUAACAUGAGGAUCACCCAUGUGGUGUUGUGAGUAAGGAGAGUGAUCAGAAGGGCAUAUUUUUU [JMF's solution 80] (Eterna round: R96, puzzle: Same State NG 2)”, the “apparent KD of MS2 coat protein” value (input ligand: FMN 200 uM) worked out at 1170 nM, the “apparent KD of MS2 coat protein” value under setting [1] was found to be 443 nM and the “apparent KD of MS2 coat protein” value (input ligand: none) is 863 nM.

Take “GUAGCAUACCGAGGAUAUUCAUAUUACAUGAGGAUCACCCAUGUUAUAUAGGCCAAAAGGCCUUGGGAGAAGGCGGAAUGCUAC [Xeonanis - 20 Mod9] (Eterna round: R96, puzzle: Same State NG 2)”: the “apparent KD of MS2 coat protein” value runs as follows: (input ligand: FMN 200 uM) 10.3 nM; under setting [1], 9.73 nM; (input ligand: none) 14.7 nM.

As for “GGCCUCUGUCAAGGAUAUGCUACCGUUUCGGUAGCAGAAGGUGAUCACAUGAGGAUCACCCAUGUUUAGGCCAACAGGCCCGCC (Eterna round: R96, puzzle: Same State NG 1)”, the “apparent KD of MS2 coat protein” value (input ligand: FMN 200 uM) came to 1420 nM, the “apparent KD of MS2 coat protein” value under setting [1] was 445 nM and the “apparent KD of MS2 coat protein” value (input ligand: none) came out at 1070 nM.

As to “GACAGGCAAGCUUUUUUCUCGUAGUGUAAACAUGAGGAUCACCCAUGUGCUCGCCCUAGAUCUUUGGAUCGCAGAAA [Ceedes] (puzzle: Sensor for hsa-mir-208a)”, the “apparent KD of MS2 coat protein” value under setting [2] was 39.5 nM, the “apparent KD of MS2 coat protein” value under setting [3] turned out to be 22.6 nM and the “apparent KD of MS2 coat protein” value under setting [4] is 50.1 nM.

In the case of “UUGCAGUGCGGGUAGGAUAUGUAGGGUGGUACAUGAGGAUCACCCAUGUAUCCACCCUUCGACCGGCAGAAGGGCCUGUCACCGC [Lexeis] (Eterna round: R96, puzzle: Same State 2)”, the “apparent KD of MS2 coat protein” value (input ligand: FMN 200 uM) amounted to 23.1 nM, the “apparent KD of MS2 coat protein” value under setting [1] came to 11.2 nM and the “apparent KD of MS2 coat protein” value (input ligand: none) amounted to 17.4 nM.

As to “GGCAGGUGCAGGCUUGCUUGCACCUGGAGACAUGAGGAUCACCCAUGUUUGGGACAAGCUUUGCUCCUCGUCUUUUC [JL ViennaUCT Isusreraar mod 7] (Eterna round: R96, puzzle: Sensor for hsa-mir-208a)”, the “apparent KD of MS2 coat protein” value reads like this: (input ligand: FMN 200 uM) 622 nM; under setting [1], 111 nM; (input ligand: none) 775 nM.

Turning to “UUAACAUGAGGAUCACCCAUGUAUAGGGAGUUAACAAUUGGACAGGAUAUUGAAGAUGUAGAUAGCAAGAAGGGUCGGUAGUCU [JR_SSNG3_Sub001] (Eterna round: R96, puzzle: Same State NG 3)”, under setting [1], the “apparent KD of MS2 coat protein” value amounted to 30 nM.

For the sequence “GCUAGAAUUAAAGCCAACAUGAGGAUCACCCAUGUAUGUUGGCAGGAUAUCGUUUGCUUUGCAAACGAGAAGGGCUAAACUAGC [JL SSNG3 1.02] (Eterna round: R96, puzzle: Same State NG 3)”, the “apparent KD of MS2 coat protein” value turned out to be 114 nM (input ligand: FMN 200 uM), 121 nM under setting [1] and 182 nM (input ligand: none).

Turning to “AUAUAACAUGAGGAUCACCCAUGUCUCUAAAGUCGAGGAUAUGGGCAGGUUAUAUCCGAACCAGAAGGCGGGUUAU [SS1 Teenbexe 8] (puzzle: Same State 1)”, the “apparent KD of MS2 coat protein” value amounted to 177 nM under setting [2], 123 nM under setting [3] and 146 nM under setting [4].

For “ACUCAGUACAAUUUAGAUCUACAUGAGGAUCACCCAUGUACUGAGGAUAUCAGCUCGAAUAGAGCUGAGAAGGCAGUUGUACUA [SSNG3/10-A1] (Eterna round: R96, puzzle: Same State NG 3)”, the “apparent KD of MS2 coat protein” value (input ligand: FMN 200 uM) turned out to be 102 nM, the “apparent KD of MS2 coat protein” value under setting [1] turned out to be 138 nM and the “apparent KD of MS2 coat protein” value (input ligand: none) turned out to be 248 nM.

Take “GGACGUCAACUCACUAAUUAACAUGAGGAUCACCCAUGUUCACAGGAUAUGAGUCCGAUUAGGACUCAGAAGGGUGAGACGUCC [Fiskers NG3ss - 48] (Eterna round: R96, puzzle: Same State NG 3)”: the “apparent KD of MS2 coat protein” value reads like this: (input ligand: FMN 200 uM) 20.3 nM; under setting [1], 19.7 nM; (input ligand: none) 21.1 nM.

As for “UGAACCUUCACAGGAUAUCAUGCGAAAAUUGCGUGAGAAGGGUGGAUGUGGUGUUCAAAGAUGCACAUGAGGAUCACCCAUGUA [SameState NG1 #48] (Eterna round: R96, puzzle: Same State NG 1)”, the “apparent KD of MS2 coat protein” value amounted to 106 nM (input ligand: FMN 200 uM), 166 nM under setting [1] and 203 nM (input ligand: none).

Take “UGUUGUAUUACAGGAUAUCUAUUAUUUUUAUGUAGAGAAGGGUAUUCACAUGAGGAUCACCCAUGUAUAUACGAGGAAGUUGUG [JMF's solution 29] (Eterna round: R96, puzzle: Same State NG 1)”: the “apparent KD of MS2 coat protein” value under setting [1] is 32.9 nM.

Consider “AUUUAACAAGCUUUUUGCUCGUCUUAUAAACAUGAGGAUCACCCAUGUAAUAGCGUGAGAGUAAUUAUUUAAAUAAU [JMF 94] (puzzle: Sensor for hsa-mir-208a)”, for which the “apparent KD of MS2 coat protein” value under setting [2] worked out at 16.1 nM, the “apparent KD of MS2 coat protein” value under setting [3] was 37.5 nM and the “apparent KD of MS2 coat protein” value under setting [4] came to 14.7 nM.

For “AAACGCAGCAUAUCGCUGCGACAUGAGGAUCACCCAUGUACACAGGAUAUCGCAGCAUACCGCCGCGAGAAGGGUGAUCAAGAC [Anonlete] (Eterna round: R96, puzzle: Same State NG 3)”, the “apparent KD of MS2 coat protein” value came out at 99.3 nM (input ligand: FMN 200 uM), 16.3 nM under setting [1] and 33.9 nM (input ligand: none).

For “UACAUACGCGGAGGAUAUGGGCGAGGCACGGAGGUCCGCGCCAAAACAUGAGGAUCACCCAUGUCCCAGAAGGCCGCACAAACU [Oreslaed] (Eterna round: R96, puzzle: Same State NG 2)”, the “apparent KD of MS2 coat protein” value amounted to 13.8 nM (input ligand: FMN 200 uM), 54.4 nM under setting [1] and 83.1 nM (input ligand: none).

In the case of “GAGGAUGAUUUACAGGAUAUAUAGCAGAUGACAUGAGGAUCACCCAUGUAAGAGAAAGGAGGGAGAUAGAAGGGUAUGGGAUGUG [JR_SS2_Sub039] (puzzle: Same State 2)”, the “apparent KD of MS2 coat protein” value is, setting by setting: under setting [2], 29.9 nM; under setting [3], 21.5 nM; under setting [4], 22.3 nM.

For the sequence “CUGACGUGAUCAGGAUAUUGUAAGACAAUGUUGCAAGAAGGGAUUAAUGAGCCCGAACAGACAUGAGGAUCACCCAUGUGUCAG [Eternabot solution 41] (Eterna round: R96, puzzle: Same State NG 1)”, the “apparent KD of MS2 coat protein” value is 69.5 nM (input ligand: FMN 200 uM), 51.6 nM under setting [1] and 67.6 nM (input ligand: none).

Regarding “CGGCGCUGUCGAGAGGAUAUGCGGUGAUGGACAUGAGGAUCACCCAUGUUAGCGAUAGCAUCACGGUAGAAGGCUCUUACGCCUG [Soteed Omei mod 23] (puzzle: Same State 2)”, the “apparent KD of MS2 coat protein” value reads like this: under setting [2], 91.5 nM; under setting [3], 130 nM; under setting [4], 205 nM.

On to “UGGUACAUGGGAGGAUAUCUCGUGGAGACAUGAGGAUCACCCAUGUAGAUGGCCGGUAACCGGUGAGAGAAGGCCCAUGUACCU [JL SSNG1 3.69] (Eterna round: R96, puzzle: Same State NG 2)”, for which the “apparent KD of MS2 coat protein” value runs as follows: (input ligand: FMN 200 uM) 71.6 nM; under setting [1], 42.2 nM; (input ligand: none) 141 nM.

In the case of “GCUCGAAUCACAGCCAACAUGAGGAUCACCCAUGUAUGUUGGUAGGAUAUCGUUUCUAAGGGAAACGAGAAGGGCCGAACGAGC [SameState NG3 #10] (Eterna round: R96, puzzle: Same State NG 3)”, the “apparent KD of MS2 coat protein” value (input ligand: FMN 200 uM) worked out at 171 nM, the “apparent KD of MS2 coat protein” value under setting [1] is 151 nM and the “apparent KD of MS2 coat protein” value (input ligand: none) was found to be 163 nM.

On to “UCUUAUAAUAAUAUAAUUCAUUUGAUAAAACAUGAGGAUCACCCAUGUCCUACUUUUUUUAAUCAUUUUAACUUUAA [The 7 c's] (puzzle: Sensor for hsa-mir-208a)”, for which the “apparent KD of MS2 coat protein” value by setting is: under setting [2], 45.3 nM; under setting [3], 62.6 nM; under setting [4], 63.5 nM.

Take “AUUAAACAUGAGGAUCACCCAUGUCAACAAAGUCGAGGAUAUGGGCAUAUUAUCUAAUAACCAGAAGGCGAAUAAU [salish99_ss1_r3_085] (Eterna round: R96, puzzle: Same State 1)”: the “apparent KD of MS2 coat protein” value under setting [1] turned out to be 177 nM.

On to “AGGCUGAGUCGAGGAUAUGAUCUUCAUAUAAUAACAUGAGGAUCACCCAUGUAUAAUUACAUGGAUCAGAAGGCGACUCAGCCA [SSNG2/13-B1] (Eterna round: R96, puzzle: Same State NG 2)”, for which the “apparent KD of MS2 coat protein” value turned out to be 35.4 nM (input ligand: FMN 200 uM), 414 nM under setting [1] and 584 nM (input ligand: none).

As to “AUAUGAGGAGCAGGAUAUGCGAAGAAGAAAGAAGUAGAAGGGCUCAUGGGACGACAUGAGGAUCACCCAUGUACUUCCCGAUGA [AK SSNG1-V2-7] (Eterna round: R96, puzzle: Same State NG 1)”, the “apparent KD of MS2 coat protein” value is 24.6 nM (input ligand: FMN 200 uM), 26.6 nM under setting [1] and 37.7 nM (input ligand: none).

As for “UUAAUAAUGAUAGGAUAUACAUGAGGAAUUCUCGUAGAAGGAUCAUGACAUGAGGAUCACCCAUGUAACGCUCCGUAGAGCGUA [Mat - Same State NG 1 - JL mod - D36] (Eterna round: R96, puzzle: Same State NG 1)”, the “apparent KD of MS2 coat protein” value is 413 nM (input ligand: FMN 200 uM), 321 nM under setting [1] and 447 nM (input ligand: none).

Regarding “GGUCCAGCCUGAGCUGGACAAAAGCAUGUACAUGAGGAUCACCCAUGUUCAUGUACAAGCUUUUUGCUCGUCUUAUU [salish99_208a_r3_049] (puzzle: Sensor for hsa-mir-208a)”, the “apparent KD of MS2 coat protein” value reads like this: under setting [2], 560 nM; under setting [3], 15.8 nM; under setting [4], 687 nM.

Turning to “AGCUAUCGAAAACGAUAGCAAAGGCAUGUACAUGAGGAUCACCCAUGUCAUGUACAAGCUUUUUGCUCGUCUUAAAA [Zipper 23 - 3] (Eterna round: R96, puzzle: Sensor for hsa-mir-208a)”, the “apparent KD of MS2 coat protein” value was found to be 660 nM (input ligand: FMN 200 uM), 14.1 nM under setting [1] and 440 nM (input ligand: none).

The values are drawn from the supplement of paper PMC9170038.
